Blank lines part the entries; values can stand above or below the binder they belong to.
Assays:
[1] = biological target: alpha-fetoprotein receptor (human (endogenous in tumor cell lines)); assay: plate-reader fluorescence of labeled protein bound to and internalized by cells; 0.5 µM F-ACT-101 (Alexa Fluor 647) with tumor cells at 37 °C for 0.5, 2 and 5 h, stopped on ice, cells washed, sonicated with DMSO, fluorescence read; background subtracted; binding/internalization as ng per million cells; n = 3
[2] = biological target: alpha-fetoprotein receptor (human (endogenous in tumor cell lines)); assay: flow cytometry on cells; COLO-205 or U937 cells, F-ACT-101 (Alexa Fluor 488) at 1, 3, 10, 30 and 100 µg/mL in cold PBS for 1 h on ice; percent of cells positive

- ng F-ACT-101 per million cells (COLO-205, 0.5 h) (ng/million cells) [1]: 6.9
- ng F-ACT-101 per million cells (COLO-205, 2 h) (ng/million cells) [1]: 33.6
- ng F-ACT-101 per million cells (COLO-205, 5 h) (ng/million cells) [1]: 75
- ng F-ACT-101 per million cells (H522, 0.5 h) (ng/million cells) [1]: 55.6
- ng F-ACT-101 per million cells (H522, 2 h) (ng/million cells) [1]: 27.1
- ng F-ACT-101 per million cells (H522, 5 h) (ng/million cells) [1]: 71.3
- ng F-ACT-101 per million cells (MCF-7, 0.5 h) (ng/million cells) [1]: 51
- ng F-ACT-101 per million cells (MCF-7, 2 h) (ng/million cells) [1]: 53.6
- ng F-ACT-101 per million cells (MCF-7, 5 h) (ng/million cells) [1]: 126
- ng F-ACT-101 per million cells (OVCAR-3, 0.5 h) (ng/million cells) [1]: 67
- ng F-ACT-101 per million cells (OVCAR-3, 2 h) (ng/million cells) [1]: 21.2
- ng F-ACT-101 per million cells (OVCAR-3, 5 h) (ng/million cells) [1]: 71
- ng F-ACT-101 per million cells (SKOV-3, 0.5 h) (ng/million cells) [1]: 31.3
- ng F-ACT-101 per million cells (SKOV-3, 2 h) (ng/million cells) [1]: 9.2
- ng F-ACT-101 per million cells (SKOV-3, 5 h) (ng/million cells) [1]: 16
- ng F-ACT-101 per million cells (U937, 0.5 h) (ng/million cells) [1]: 29.5
- ng F-ACT-101 per million cells (U937, 2 h) (ng/million cells) [1]: 67.1
- ng F-ACT-101 per million cells (U937, 5 h) (ng/million cells) [1]: 84.3
B1: Fluorescently labeled ACT-101 (Alexa Fluor 647) (ligand)
chain: RTLHRNEYGIASILDSYQCTAEISLADLATIFFAQFVQEATYKEVSKMVKDALTAIEKPTGDEQSSGCLENQLPAFLEELCHEKEILEKYGHSDCCSQSEEGRHNCFLAHKKPTPASIPLFQVPEPVTSCEAYEEDRETFMNKFIYEIARRHPFLYAPTILLWAARYDKIIPSCCKAENAVECFQTKAATVTKELRESSLLNQHACAVMKNFGTRTFQAITVTKLSQKFTKVQFTEIQKLVLDVAHVHEHCCRGDVLDCLQDGEKIMSYICSQQDTLSNKITECCKLTTLERGQCIIHAENDEKPEGLSPNLNRFLGDRDFNQFSSGEKNIFLASFVHEYSRRHPQLAVSVILRVAKGYQELLEKCFQTENPLECQDKGEEELQKYIQESQALAKRSCGLFQKLGEYYLQNAFLVAYTKKAPQLTSSELMAITRKMAATAATCCQLSEDKLLACGEGAADIIIGHLCIRHEMTPVNPGVGQCCTSSYANRRPCFSSLVVDETYVPPAFSDDKFIFHKDLCQAQGVALQTMKQEFLINLVKQKPQITEEQLEAVIADFSGLLEKCCQGQEQEVCFAEEGQKLISKTRAALGV
modifications: Alexa Fluor 647 label (protein labeling kit); sites not stated

- percent of cells positive for binding (COLO-205, at 100 µg/mL) [2]: 90%
- percent of cells positive for binding (U937, at 100 µg/mL) [2]: 90%
B2: Fluorescently labeled ACT-101 (Alexa Fluor 488) (ligand)
chain: B1 chain
modifications: Alexa Fluor 488 label (microscale protein labeling kit); sites not stated

From paper PMC10074858
